The results in this text go back to patent US20180343839A1 (BROAD INSTITUTE, published 2018).

The target in the experiment is RAB28 (human, UniProt P51157 2-218). Briefly: CRBN interaction study (HA-CRBN immunoprecipitation, SILAC MS); assay not given.

B1: HA-CRBN (hemagglutinin (HA)-tagged human CRBN) (other)
chain: MAGEGDQQDAAHNMGNHLPLLPESEEEDEMEVEDQDSKEAKKPNIINFDTSLPTSHTYLGADMEEFHGRTLHDDDSCQVIPVLPQVMMILIPGQTLPLQLFHPQEVSMVRNLIQKDRTFAVLAYSNVQEREAQFGTTAEIYAYREEQDFGIEIVKVKAIGRQRFKVLELRTQSDGIQQAKVQILPECVLPSTMSAVQLESLNKCQIFPSKPVSREDQCSYKWWQKYQKRKFHCANLTSWPRWLYSLYDAETLMDRIKKQLREWDENLKDDSLPSNPIDFSYRVAACLPIDDVLRIQLLKIGSAIQRLRCELDIMNKCTSLCCKQCQETEITTKNEIFSLSLCGPMAAYVNPHGYVHETLTVYKACNLNLIGRPSTEHSWFPGYAWTVAQCKICASHIGWKFTATKKDMSPQKFWGLTRSALLPTIPDTEDEISPDKVILCL
notes: the clone used (Broad ORF007943.1_s300c1); its numbering fits V387, Y383 and W385 as printed; also called HA-tagged CRBN; HA-CBRN; not shown: HA tag
For the molecule B1, the binding result is recorded as “no binding”.
